Source: patent publication US20240199746A1 (published 2024)
Where a chain is given by its changes, count along the chain named. Names may count otherwise.

B1: HC-W110H (antibody, V domains shown)
VH: EVQLVQSGAEVKKPGATVKISCKVSGYSFTGHTMNWIRQPPGKGLEWIGLIKPSNGGTSYNQKFKGRVTISADKSISTAYLQWSSLKASDTAMYYCAHGHYESYFAMDYHGQGTLVTVSS
VL: DIQMTQSPSSLSASVGDRVTITCKASQDVSSAVAWYQQKPGQAPRLLIYWASTRHTGVPSRFSGSGSGTEFTLTISSLQPDDFATYYCQEHFSTPLTFGQGTKVEIK
B2: HC-W110T (antibody, V domains shown)
VH: B1 VH with H110T
VL: B1 VL
B3: HC-W110N (antibody, V domains shown)
VH: B1 VH with H110N
VL: B1 VL
B4: HC-W110L (antibody, V domains shown)
VH: B1 VH with H110L
VL: B1 VL
B5: HC-W110R (antibody, V domains shown)
VH: B1 VH with H110R
VL: B1 VL
B6: HC-W110A (antibody, V domains shown)
VH: B1 VH with H110A
VL: B1 VL
B7: HC-W110P (antibody, V domains shown)
VH: B1 VH with H110P
VL: B1 VL
B8: HC-E102L (antibody, V domains shown)
VH: B1 VH with E102L, H110W
VL: B1 VL
notes: CPE single point mutant
B9: HC-A106D (antibody, V domains shown)
VH: B1 VH with A106D, H110W
VL: B1 VL
notes: CPE single point mutant
B10: HC-A106G (antibody, V domains shown)
VH: B1 VH with A106G, H110W
VL: B1 VL
notes: CPE single point mutant
B11: HC-A106L (antibody, V domains shown)
VH: B1 VH with A106L, H110W
VL: B1 VL
notes: CPE single point mutant
B12: HC-B102A (antibody, V domains shown)
VH: B1 VH with E102A, H110W
VL: B1 VL
notes: CPE single point mutant; printed B102, read as E102 (other rows print HC-E102x)
B13: HC-B102D (antibody, V domains shown)
VH: B1 VH with E102D, H110W
VL: B1 VL
notes: as for B12
B14: HC-B102F (antibody, V domains shown)
VH: B1 VH with E102F, H110W
VL: B1 VL
notes: as for B12
B15: HC-B102G (antibody, V domains shown)
VH: B1 VH with E102G, H110W
VL: B1 VL
notes: as for B12
B16: HC-B102H (antibody, V domains shown)
VH: B1 VH with E102H, H110W
VL: B1 VL
notes: as for B12
B17: HC-B102I (antibody, V domains shown)
VH: B1 VH with E102I, H110W
VL: B1 VL
notes: as for B12
B18: HC-E102M (antibody, V domains shown)
VH: B1 VH with E102M, H110W
VL: B1 VL
notes: CPE single point mutant
B19: HC-E102V (antibody, V domains shown)
VH: B1 VH with E102V, H110W
VL: B1 VL
notes: CPE single point mutant
B20: HC-E102Y (antibody, V domains shown)
VH: B1 VH with E102Y, H110W
VL: B1 VL
notes: CPE single point mutant
B21: HC-F105N (antibody, V domains shown)
VH: B1 VH with F105N, H110W
VL: B1 VL
notes: CPE single point mutant
B22: HC-F105S (antibody, V domains shown)
VH: B1 VH with F105S, H110W
VL: B1 VL
notes: CPE single point mutant
B23: HC-F105T (antibody, V domains shown)
VH: B1 VH with F105T, H110W
VL: B1 VL
notes: CPE single point mutant
B24: HC-F105V (antibody, V domains shown)
VH: B1 VH with F105V, H110W
VL: B1 VL
notes: CPE single point mutant
B25: HC-H100D (antibody, V domains shown)
VH: B1 VH with H100D, H110W
VL: B1 VL
notes: CPE single point mutant
B26: HC-H100P (antibody, V domains shown)
VH: B1 VH with H100P, H110W
VL: B1 VL
notes: CPE single point mutant
B27: HC-H100R (antibody, V domains shown)
VH: B1 VH with H100R, H110W
VL: B1 VL
notes: CPE single point mutant
B28: HC-M107E (antibody, V domains shown)
VH: B1 VH with M107E, H110W
VL: B1 VL
notes: CPE single point mutant
B29: HC-M107F (antibody, V domains shown)
VH: B1 VH with M107F, H110W
VL: B1 VL
notes: CPE single point mutant
B30: HC-N035I (antibody, V domains shown)
VH: B1 VH with N35I, H110W
VL: B1 VL
notes: CPE single point mutant
B31: HC-P053N (antibody, V domains shown)
VH: B1 VH with P53N, H110W
VL: B1 VL
notes: CPE single point mutant
B32: HC-S059I (antibody, V domains shown)
VH: B1 VH with S59I, H110W
VL: B1 VL
notes: CPE single point mutant
B33: HC-S059T (antibody, V domains shown)
VH: B1 VH with S59T, H110W
VL: B1 VL
notes: CPE single point mutant

What follows are binders tested against T1, Ax1 protein, extracellular domain (human, UniProt P30530 26-451) (assay: ELISA, mutant diluted 1:3).
T1 construct: extracellular domain; also called Axl; Ark
T1 sequence (looked up): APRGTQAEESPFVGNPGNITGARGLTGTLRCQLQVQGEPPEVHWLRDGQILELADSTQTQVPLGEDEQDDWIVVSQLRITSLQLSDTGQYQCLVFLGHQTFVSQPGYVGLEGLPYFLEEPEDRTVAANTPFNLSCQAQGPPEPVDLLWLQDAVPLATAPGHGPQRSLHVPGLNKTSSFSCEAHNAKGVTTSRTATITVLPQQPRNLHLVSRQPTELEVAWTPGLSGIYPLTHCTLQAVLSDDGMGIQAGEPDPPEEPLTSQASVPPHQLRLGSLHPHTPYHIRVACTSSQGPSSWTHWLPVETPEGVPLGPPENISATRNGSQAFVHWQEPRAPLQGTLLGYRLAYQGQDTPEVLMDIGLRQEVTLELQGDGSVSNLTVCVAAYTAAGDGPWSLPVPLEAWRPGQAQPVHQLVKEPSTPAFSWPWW
From the text: (§1) The DNA encoding the wild-type antibody was evolved to generate a mutant antibody library using Comprehensive Positional Evolution (CPE), which each position in the template antibody is randomized one at a time. Each mutant antibody in the library has only one single point mutation. The mutant antibodies in the library were generated by simultaneously screening for selective binding affinity to Ax1 at pH 6.0 over pH 7.4 by ELISA. Two mutant antibody dilutions were used: 1:3 and 1:9 dilutions.

| Binder | Affinity ELISA CPE mutant ratio (1:3, pH 6.0/7.4) |
| --- | --- |
| B1 | 7.99 |
| B2 | 7.47 |
| B3 | 4.3 |
| B4 | 8.22 |
| B5 | 5.99 |
| B6 | 7.31 |
| B7 | 6.49 |
| B8 | 3.27 |
| B9 | 3.39 |
| B10 | 1.52 |
| B11 | 21.5 |
| B12 | 1.53 |
| B13 | 2.67 |
| B14 | 1.88 |
| B15 | 1.8 |
| B16 | 2.08 |
| B17 | 2.02 |

| Binder | Affinity ELISA CPE mutant ratio (1:3, pH 6.0/7.4) |
| --- | --- |
| B18 | 2.08 |
| B19 | 1.93 |
| B20 | 2.61 |
| B21 | 2.36 |
| B22 | 3.9 |
| B23 | 3.46 |
| B24 | 2.43 |
| B25 | 2.42 |
| B26 | 2.58 |
| B27 | 1.88 |
| B28 | 2.16 |
| B29 | 20.6 |
| B30 | 2.81 |
| B31 | 1.4 |
| B32 | 30.5 |
| B33 | 1.02 |

Each binder was assayed against T1, Ax1 protein, extracellular domain (assay: ELISA, mutant diluted 1:9).
From the text: as §1

| Binder | Affinity ELISA CPE mutant ratio (1:9, pH 6.0/7.4) |
| --- | --- |
| B1 | 0.932 |
| B2 | 1.37 |
| B3 | 0.8 |
| B4 | 0.924 |
| B5 | 1.06 |
| B6 | 1.2 |
| B7 | 2.15 |
| B8 | 2.7 |
| B9 | 2.51 |
| B10 | 2.2 |
| B11 | 1.61 |
| B12 | 1.69 |
| B13 | 2.85 |
| B14 | 1.36 |
| B15 | 2.68 |
| B16 | 2.31 |
| B17 | 1.7 |

| Binder | Affinity ELISA CPE mutant ratio (1:9, pH 6.0/7.4) |
| --- | --- |
| B18 | 2.36 |
| B19 | 2.51 |
| B20 | 1.99 |
| B21 | 2.64 |
| B22 | 4.54 |
| B23 | 4.02 |
| B24 | 2.8 |
| B25 | 3.09 |
| B26 | 1.18 |
| B27 | 2.51 |
| B28 | 1.36 |
| B29 | 1.09 |
| B30 | 1.12 |
| B31 | 1.89 |
| B32 | 2.06 |
| B33 | 1.93 |
